Results taken from patent US20260274954A1 (published 2026).

target: cynomolgus PD-1 protein (construct not stated) (cynomolgus) (UniProt B0LAJ3); assay: ELISA, second round mutagenesis library screen; unit not given
Sequence (B0LAJ3 entry or part of it limits assumed): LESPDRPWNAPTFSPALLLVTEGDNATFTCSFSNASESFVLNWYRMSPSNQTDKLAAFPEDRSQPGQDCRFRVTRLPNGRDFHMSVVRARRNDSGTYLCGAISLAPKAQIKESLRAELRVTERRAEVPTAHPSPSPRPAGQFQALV

Row | Binder | Bmax
1 | L1I (antibody, V domains shown) VH: QVQLVQSGAEVKKPGSSVKVSCKASGFTFTTYYISWVRQAPGQGLEYLGYINMGSGGTNYNEKFKGRVTITADKSTSTAYMELSSLRSEDTAVYYCAIIGYFDYWGQGTMVTVSS VL: DVVMTQSPLSLPVTLGQPASISCRSSQSLLDSDGNTYLYWFQQRPGQSPRRLIYLVSTLGSGVPDRFSGSGSGTDFTLKISRVEAEDVGVYYCMQLTHAPYTFGQGTKLEIK | 0.0517

target: T1, cynomolgus PD-1 protein (construct not stated) (cynomolgus, UniProt B0LAJ3 25-170); assay: as above
T1 construct: not shown: tag or Fc carrier of the recombinant (Sino Biological) cynomolgus PD-1
T1 sequence (B0LAJ3 entry or part of it limits assumed, form in doubt): as the sequence (B0LAJ3 entry or part of it limits assumed) above

Row | Binder | Bmax
2 | 2B1 (antibody, V domains shown) VH: QVQLVQSGAEVKKPGSSVKVSCKASGFTFTTYYISWVRQAPGQGLEYLGYINMGSGGTNYNEKFKGRVTITADKSTSTAYMELSSLRSEDTAVYYCAIIGYFDYWGQGTMVTVSS VL: DVVMTQSPLSLPVTLGQPASISCRSSQSLLDSDGNTYLYWFQQRPGQSPRRLIYLVSTLGSGVPDRFSGSGSGTDFTLKISRVEAEDVGVYYCMQLTHWPYTFGQGTKLEIK | 1.21
3 | 2E5 (antibody, V domains shown) VH: QVQLVQSGAEVKKPGSSVKVSCKASGFTFTTYYISWVRQAPGQGLEYLGYINMGSGGTNYNEKFKGRVTITADKSTSTAYMELSSLRSEDTAVYYCAIIGYFDYWGQGTMVTVSS VL: DVVMTQSPLSLPVTLGQPASISCRSSQSLLDSDGGTYLYWFQQRPGQSPRRLIYLVSTLGSGVPDRFSGSGSGTDFTLKISRVEAEDVGVYYCMQLTHWPYTFGQGTKLEIK | 1.72
4 | 8C10 (antibody, V domains shown) VH: QVQLVQSGAEVKKPGSSVKVSCKASGFTFTTYYISWVRQAPGQGLEYLGYINMGSGGTNYNEKFKGRVTITADKSTSTAYMELSSLRSEDTAVYYCAIIGYFDYWGQGTMVTVSS VL: DVVMTQSPLSLPVTLGQPASISCRSSQSLLDSDGQTYLYWFQQRPGQSPRRLIYLVSTLGSGVPDRFSGSGSGTDFTLKISRVEAEDVGVYYCMQLTHENYTFGQGTKLEIK | 1.11
5 | 2C2 (antibody, V domains shown) VH: QVQLVQSGAEVKKPGSSVKVSCKASGFTFTTYYISWVRQAPGQGLEYLGYINMGSGGTNYNEKFKGRVTITADKSTSTAYMELSSLRSEDTAVYYCAIIGYFDYWGQGTMVTVSS VL: DVVMTQSPLSLPVTLGQPASISCRSSQSLLDSDGATYLYWFQQRPGQSPRRLIYLVSTLGSGVPDRFSGSGSGTDFTLKISRVEAEDVGVYYCMQLTHWPYTFGQGTKLEIK | 1.67
6 | 1G10 (antibody, V domains shown) VH: QVQLVQSGAEVKKPGSSVKVSCKASGFTFTTYYISWVRQAPGQGLEYLGYINMGSGGTNYNEKFKGRVTITADKSTSTAYMELSSLRSEDTAVYYCAILGYFDYWGQGTMVTVSS VL: DVVMTQSPLSLPVTLGQPASISCRSSQSLLDSDGATYLYWFQQRPGQSPRRLIYLVSTLGSGVPDRFSGSGSGTDFTLKISRVEAEDVGVYYCMQLTHWPYTFGQGTKLEIK | 1.08
7 | 2G4 (antibody, V domains shown) VH: QVQLVQSGAEVKKPGSSVKVSCKASGFTFTTYYISWVRQAPGQGLEYLGYINMGSGGTNYNEKFKGRVTITADKSTSTAYMELSSLRSEDTAVYYCAIIGYFDYWGQGTMVTVSS VL: DVVMTQSPLSLPVTLGQPASISCRSSQSLLDSDGSTYLYWFQQRPGQSPRRLIYLVSTLGSGVPDRFSGSGSGTDFTLKISRVEAEDVGVYYCMQLTHWPYTFGQGTKLEIK | 1.72
8 | 1H6 (antibody, V domains shown) VH: QVQLVQSGAEVKKPGSSVKVSCKASGFTFTTYYISWVRQAPGQGLEYLGYINMGSGGTNYNEKFKGRVTITADKSTSTAYMELSSLRSEDTAVYYCAILGYFDYWGQGTMVTVSS VL: DVVMTQSPLSLPVTLGQPASISCRSSQSLLDSDGGTYLYWFQQRPGQSPRRLIYLVSTLGSGVPDRFSGSGSGTDFTLKISRVEAEDVGVYYCMQLTHWPYTFGQGTKLEIK | 0.317
9 | 5C4 (antibody, V domains shown) VH: QVQLVQSGAEVKKPGSSVKVSCKASGFTFTTYYISWVRQAPGQGLEYLGYINMGSGGTNYNEKFKGRVTITADKSTSTAYMELSSLRSEDTAVYYCAILGYFDYWGQGTMVTVSS VL: DVVMTQSPLSLPVTLGQPASISCRSSQSLLDSDGQTYLYWFQQRPGQSPRRLIYLVSTLGSGVPDRFSGSGSGTDFTLKISRVEAEDVGVYYCMQLTHEPYTFGQGTKLEIK | 0.258
